How the values were obtained:
[1] = molecular target: NKG2A on rhesus monkey (Macaca mulatta) NK cells (rhesus monkey (Macaca mulatta)) (UniProt Q9MZJ3); test: FACS rhesus whole blood, animal 34459
[2] = molecular target: NKG2A on rhesus monkey (Macaca mulatta) NK cells (rhesus monkey (Macaca mulatta)) (UniProt Q9MZJ3); test: FACS rhesus whole blood, animal R00007
[3] = molecular target: NKG2A on rhesus monkey (Macaca mulatta) NK cells (rhesus monkey (Macaca mulatta)) (UniProt Q9MZJ3); test: FACS rhesus whole blood, animal R00037
[4] = molecular target: NKG2A on rhesus monkey (Macaca mulatta) NK cells (rhesus monkey (Macaca mulatta)) (UniProt Q9MZJ3); test: FACS rhesus whole blood, animal R00041
[5] = molecular target: NKG2A on rhesus monkey (Macaca mulatta) NK cells (rhesus monkey (Macaca mulatta)) (UniProt Q9MZJ3); test: FACS rhesus whole blood, animal R00055
[6] = molecular target: NKG2A on rhesus monkey (Macaca mulatta) NK cells (rhesus monkey (Macaca mulatta)) (UniProt Q9MZJ3); test: FACS rhesus whole blood, animal R00085
[7] = molecular target: NKG2A on cynomolgus monkey NK cells (cynomolgus monkey) (UniProt Q68VD2); test: FACS cynomolgus whole blood, animal 1221
Chain of UniProt Q68VD2 (Q68VD2 entry or part of it): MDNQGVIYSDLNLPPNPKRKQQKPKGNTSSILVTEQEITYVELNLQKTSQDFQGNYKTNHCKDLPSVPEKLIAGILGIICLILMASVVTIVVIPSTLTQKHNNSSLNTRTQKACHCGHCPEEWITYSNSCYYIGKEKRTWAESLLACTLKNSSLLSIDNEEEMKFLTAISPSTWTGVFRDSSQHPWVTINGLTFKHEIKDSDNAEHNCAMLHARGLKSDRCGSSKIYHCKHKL

[8] = molecular target: NKG2A on cynomolgus monkey NK cells (cynomolgus monkey) (UniProt Q68VD2); test: FACS cynomolgus whole blood, animal M859
[9] = molecular target: NKG2A on cynomolgus monkey NK cells (cynomolgus monkey) (UniProt Q68VD2); test: FACS cynomolgus whole blood, animal R390
[10] = molecular target: NKG2A on cynomolgus monkey NK cells (cynomolgus monkey) (UniProt Q68VD2); test: FACS cynomolgus whole blood, animal T788
[11] = molecular target: NKG2A on cynomolgus monkey NK cells (cynomolgus monkey) (UniProt Q68VD2); test: FACS cynomolgus whole blood, animal AK565
[12] = molecular target: NKG2A on cynomolgus monkey NK cells (cynomolgus monkey) (UniProt Q68VD2); test: FACS cynomolgus whole blood, animal AL210
[13] = molecular target: NKG2A on cynomolgus monkey NK cells (cynomolgus monkey) (UniProt Q68VD2); test: FACS cynomolgus whole blood, animal AL303
[14] = molecular target: NKG2A on cynomolgus monkey NK cells (cynomolgus monkey) (UniProt Q68VD2); test: FACS cynomolgus whole blood, animal AL389
[15] = molecular target: NKG2A on rhesus monkey (Macaca mulatta) NK cells (rhesus monkey (Macaca mulatta)) (UniProt Q9MZJ3); test: FACS rhesus whole blood NK cells, animal 201
[16] = molecular target: NKG2A on rhesus monkey (Macaca mulatta) NK cells (rhesus monkey (Macaca mulatta)) (UniProt Q9MZJ3); test: FACS rhesus whole blood NK cells, animal CH256
[17] = molecular target: NKG2A on rhesus monkey (Macaca mulatta) NK cells (rhesus monkey (Macaca mulatta)) (UniProt Q9MZJ3); test: FACS rhesus whole blood NK cells, animal N0404
[18] = molecular target: NKG2A on rhesus monkey (Macaca mulatta) NK cells (rhesus monkey (Macaca mulatta)) (UniProt Q9MZJ3); test: FACS rhesus whole blood NK cells, animal P9215
[19] = molecular target: NKG2A on rhesus monkey (Macaca mulatta) NK cells (rhesus monkey (Macaca mulatta)) (UniProt Q9MZJ3); test: FACS rhesus whole blood NK cells, animal RU925
[20] = molecular target: NKG2A on baboon NK cells (baboon); test: FACS baboon whole blood NK cells, animal K938A
[21] = molecular target: NKG2A on baboon NK cells (baboon); test: FACS baboon whole blood NK cells, animal V861B
[22] = molecular target: NKG2A on baboon NK cells (baboon); test: FACS baboon whole blood NK cells, animal V918C
[23] = molecular target: NKG2A on baboon NK cells (baboon); test: FACS baboon whole blood NK cells, animal V9912
[24] = molecular target: NKG2A on baboon NK cells (baboon); test: FACS baboon whole blood NK cells, animal V9914
[25] = molecular target: NKG2A on rhesus monkey (Macaca mulatta) NK cells (rhesus monkey (Macaca mulatta)) (UniProt Q9MZJ3); test: FACS rhesus whole blood, animal R00073 (5.6 kg)
[26] = molecular target: NKG2A on rhesus monkey (Macaca mulatta) NK cells (rhesus monkey (Macaca mulatta)) (UniProt Q9MZJ3); test: FACS rhesus whole blood NK cells, mean of 9 animals

Chain of UniProt Q9MZJ3 (Q9MZJ3 whole entry): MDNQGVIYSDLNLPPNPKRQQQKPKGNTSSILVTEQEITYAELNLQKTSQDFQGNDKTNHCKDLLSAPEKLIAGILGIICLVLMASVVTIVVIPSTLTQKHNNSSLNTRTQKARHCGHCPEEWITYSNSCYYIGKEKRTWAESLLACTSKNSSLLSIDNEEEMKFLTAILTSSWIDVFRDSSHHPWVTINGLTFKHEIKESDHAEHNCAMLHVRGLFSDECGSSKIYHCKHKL

mouse IgG1 isotype control (antibody)
% NK+ [1]: 1.4% | MFI [1]: 0.76 | % NK+ [2]: 1.5% | MFI [2]: 0.52 | % NK+ [3]: 0.6% | MFI [3]: 0.5 | % NK+ [4]: 0.9% | MFI [4]: 0.48 | % NK+ [5]: 0.6% | MFI [5]: 0.7 | % NK+ [6]: 0.9% | MFI [6]: 0.7 | % NK+ [7]: 0.6% | MFI [7]: 0.53 | % NK+ [8]: 0.2% | MFI [8]: 0.51 | % NK+ [9]: 0.2% | MFI [9]: 0.39 | % NK+ [10]: 0.3% | MFI [10]: 0.5 | % NK+ [11]: 0.6% | MFI [11]: 0.66 | % NK+ [12]: 0.4% | MFI [12]: 0.65 | % NK+ [13]: 0.13% | MFI [13]: 0.63 | % NK+ [14]: 0.3% | MFI [14]: 0.63 | % [15]: 1.3% | % [16]: 0.8% | % [17]: 0.6% | % [18]: 1.4% | % [19]: 0.4% | % [20]: 0.3% | tot. MFI [20]: 0.3 | % [21]: 0.2% | tot. MFI [21]: 0.6 | % [22]: 0.3% | tot. MFI [22]: 1.1 | % [23]: 0.2% | tot. MFI [23]: 0.2 | % [24]: 0.1% | tot. MFI [24]: 0.3 | % NK+ [25]: 0.5% | MFI [25]: 0.4 | % (Mean) [26]: 0.7%

Reference: patent US20090208416A1
